The series deals with the molecule itself. Description: non-reducing SDS-PAGE.

B1: GAUT1Δ167 (Arabidopsis GALACTURONOSYLTRANSFERASE 1, truncated at the in vivo cleavage site between residues 167 and 168) (enzyme, Arabidopsis thaliana, UniProt Q9LE59 168-673, looked up)
chain: RANELVQHNDDTILKLENAAIERSKSVDSAVLGKYSIWRRENENDNSDSNIRLMRDQVIMARVYSGIAKLKNKNDLLQELQARLKDSQRVLGEATSDADLPRSAHEKLRAMGQVLAKAKMQLYDCKLVTGKLRAMLQTADEQVRSLKKQSTFLAQLAAKTIPNPIHCLSMRLTIDYYLLSPEKRKFPRSENLENPNLYHYALFSDNVLAASVVVNSTIMNAKDPSKHVFHLVTDKLNFGAMNMWFLLNPPGKATIHVENVDEFKWLNSSYCPVLRQLESAAMREYYFKADHPTSGSSNLKYRNPKYLSMLNHLRFYLPEVYPKLNKILFLDDDIIVQKDLTPLWEVNLNGKVNGAVETCGESFHRFDKYLNFSNPHIARNFNPNACGWAYGMNMFDLKEWKKRDITGIYHKWQNMNENRTLWKLGTLPPGLITFYGLTHPLNKAWHVLGLGYNPSIDKKDIENAAVVHYNGNMKPWLELAMSKYRPYWTKYIKFDHPYLRRCNLHE
Consider B1, for which the binding result is on record as “binds”.

The values are drawn from publication PMC8976717 (The Plant journal : for cell and molecular biology, 2021).
